Measured values as given in patent US20150158934A1.
Changes are numbered by the printed parent chain.

B1: J3_CDR2_fill_1 (site directed mutagenesis) (VHH)
VHH: EVQLVESGGGLVQAGGFLRLSCELRGSIFNQYAMAWFRQAPGKEREFVAGMSGAVPHYGEFVKGRFTISRDNAKSTVYLQMSSLKPEDTAIYFCARSKSTYISYNSNGYDYWGRGTQVTVSS
B2: J3_CDR2_fill_2 (site directed mutagenesis) (VHH)
VHH: EVQLVESGGGLVQAGGFLRLSCELRGSIFNQYAMAWFRQAPGKEREFVAGMSWGAVPHYGEFVKGRFTISRDNAKSTVYLQMSSLKPEDTAIYFCARSKSTYISYNSNGYDYWGRGTQVTVSS
B3: L8Cj3 Mutant 2 (VHH)
VHH: EVQLVESGGGLVQAGGFLRLSCELRGSIFSQYAMAWFRQAPGKEREFVAGMGAVPHYGEFVKGRFTISRDNAKSTVYLQMSSLKPEDTAIYFCARSKSTYISYNSNGYDYWGRGTQVTVSS
B4: L8Cj3 Mutant 10 (VHH)
VHH: B3 VHH with S30N, G107E
B5: L8Cj3 Mutant 12 (VHH)
VHH: B3 VHH with E23I, L24Y, S30N
B6: L8Cj3 Mutant 1 (VHH)
VHH: B3 VHH with E23A, L24A, R25S, S30N
B7: L8Cj3 Mutant 9 (VHH)
VHH: B3 VHH with S30N, N104A
B8: L8Cj3 Mutant 6 (VHH)
VHH: B3 VHH with S30N, F92Y
B9: L8Cj3 Mutant 7 (VHH)
VHH: B3 VHH with S30N, R95A
B10: L8Cj3 Mutant 8 (VHH)
VHH: B3 VHH with S30N, S98N
B11: L8Cj3 Mutant 5 (VHH)
VHH: B3 VHH with S30N, I90V
B12: L8i5 (VHH)
VHH: B3 VHH with L24P, S30N, P55A, S74N, V76A, S81N
B13: L8Cj3 Mutant 11 (VHH)
VHH: B3 VHH with S30N, R113Q
B14: L8Cj3 Mutant 4 (VHH)
VHH: B3 VHH with S30N, G58A, E59D, F60S
B15: L8Cj3 Mutant 13 (VHH)
VHH: B3 VHH with S27R, I28T, S30N
B16: L93E3 (VHH)
VHH: EVQLVESGGGLVQPGGSLRLSCAASQFTLESYAIGWFRQAPGKDSEGVACISSSTYYADSVKGRFTISRDNAKNTVYLQMESLKPEDTAVYHCATSGAGSYCTLRAFGSWGQGTQVTVSS
B17: 3E3mod-long-CDR2 (VHH)
VHH: QVQLQESGGGLVQAGGSLRLSCAASQFTLESYAIGWFRQAPGKDSEGVACISSSDGSTYYADSVKGRFTISRDNAKNTVYLQMNSLKPEDTAVYHCATSGAGSYCTLRAFGSWGQGTQVTVSS
B18: L1719E1 (VHH)
VHH: EVQLVESGGGLVRHGDSLRLSCLVSGRTTSVYATGWFRQAPGKEREFVAAISWSGGYTNYADSVKGRFTISRDNAKNTVFLQMNSLKPEDTAVYYCAADRNPYRGSNNANAYDYWGQGTQVTVSS
B19: L81H9 (VHH)
VHH: EVQLVESGGGLVQAGGSLRLSCVCSGFSSDEYAIGWFRQAPGKEREGVSYISREDGSRHYADSVKGRFTISTDYARNTVYLQMDSLKPEDTGVYYCAAALLGDYVLWLPEYPYNYWGQGTQVTVSS

These binders were tested against gp140CN54 (subtype B'/C), gp140 envelope glycoprotein from the HIV-1 group M CRF07-B/C-clade isolate 97CN54 (HIV-1) (assay: binding of VHH to gp140 CN54 (method not given)).

**Q.** How did the K50 (50% binding concentration) turn out when B1 was run?
**A.** The K50 (50% binding concentration) was > 100 µg/mL.

**Q.** For B2, which K50 (50% binding concentration) is on record?
**A.** The K50 (50% binding concentration) was > 100 µg/mL.

The binders below were run against gp140UG37 (subtype A), gp140 envelope glycoprotein from the HIV-1 group M A-clade isolate 92UG037 (HIV-1) (assay: binding of purified VHH to gp140 92UG (method not given)).

**Q.** Which K50 (50% binding concentration; column head reads KD) does the source give for B3 here?
**A.** Its K50 (50% binding concentration; column head reads KD) is 0.04 µg/mL.

**Q.** How did the K50 (50% binding concentration; column head reads KD) turn out when B4 was run?
**A.** Its K50 (50% binding concentration; column head reads KD) is 0.086 µg/mL.

**Q.** How did the K50 (50% binding concentration; column head reads KD) turn out when B5 was run?
**A.** The K50 (50% binding concentration; column head reads KD) was 0.042 µg/mL.

**Q.** B6 was tested. Which K50 (50% binding concentration; column head reads KD) did it give?
**A.** Its K50 (50% binding concentration; column head reads KD) is 0.058 µg/mL.

**Q.** Which K50 (50% binding concentration; column head reads KD) does the source give for B7 here?
**A.** The K50 (50% binding concentration; column head reads KD) was 0.022 µg/mL.

**Q.** For B8, which K50 (50% binding concentration; column head reads KD) is on record?
**A.** Its K50 (50% binding concentration; column head reads KD) is 0.024 µg/mL.

**Q.** B9 was tested. Which K50 (50% binding concentration; column head reads KD) did it give?
**A.** Its K50 (50% binding concentration; column head reads KD) is 0.95 µg/mL.

**Q.** B10 was tested. Which K50 (50% binding concentration; column head reads KD) did it give?
**A.** Its K50 (50% binding concentration; column head reads KD) is 0.02 µg/mL.

**Q.** B11 was tested. Which K50 (50% binding concentration; column head reads KD) did it give?
**A.** Its K50 (50% binding concentration; column head reads KD) is 0.028 µg/mL.

**Q.** B12 was tested. Which K50 (50% binding concentration; column head reads KD) did it give?
**A.** Its K50 (50% binding concentration; column head reads KD) is 0.048 µg/mL.

**Q.** With B13 as the binder, how does the K50 (50% binding concentration; column head reads KD) read?
**A.** Its K50 (50% binding concentration; column head reads KD) is 0.019 µg/mL.

**Q.** For B14, which K50 (50% binding concentration; column head reads KD) is on record?
**A.** The K50 (50% binding concentration; column head reads KD) was 0.025 µg/mL.

**Q.** With B15 as the binder, how does the K50 (50% binding concentration; column head reads KD) read?
**A.** Its K50 (50% binding concentration; column head reads KD) is 0.027 µg/mL.

Each binder was assayed against gp140CN54 (subtype B'/C), gp140 envelope glycoprotein from the HIV-1 group M CRF07-B/C-clade isolate 97CN54 (HIV-1) (assay: binding of purified VHH to gp140 CN54 (method not given)).

**Q.** Which K50 (50% binding concentration; column head reads KD) does the source give for B3 here?
**A.** The K50 (50% binding concentration; column head reads KD) was 0.18 µg/mL.

**Q.** B4 was tested. Which K50 (50% binding concentration; column head reads KD) did it give?
**A.** The K50 (50% binding concentration; column head reads KD) was 12.1 µg/mL.

**Q.** How did the K50 (50% binding concentration; column head reads KD) turn out when B5 was run?
**A.** The K50 (50% binding concentration; column head reads KD) was > 100 µg/mL.

**Q.** How did the K50 (50% binding concentration; column head reads KD) turn out when B6 was run?
**A.** The K50 (50% binding concentration; column head reads KD) was 67.8 µg/mL.

**Q.** For B7, which K50 (50% binding concentration; column head reads KD) is on record?
**A.** The K50 (50% binding concentration; column head reads KD) was 0.14 µg/mL.

**Q.** For B8, which K50 (50% binding concentration; column head reads KD) is on record?
**A.** The K50 (50% binding concentration; column head reads KD) was 0.25 µg/mL.

**Q.** Which K50 (50% binding concentration; column head reads KD) does the source give for B9 here?
**A.** Its K50 (50% binding concentration; column head reads KD) is > 100 µg/mL.

**Q.** With B10 as the binder, how does the K50 (50% binding concentration; column head reads KD) read?
**A.** The K50 (50% binding concentration; column head reads KD) was 0.36 µg/mL.

**Q.** Which K50 (50% binding concentration; column head reads KD) does the source give for B11 here?
**A.** Its K50 (50% binding concentration; column head reads KD) is 1.07 µg/mL.

**Q.** B12 was tested. Which K50 (50% binding concentration; column head reads KD) did it give?
**A.** The K50 (50% binding concentration; column head reads KD) was 8.54 µg/mL.

**Q.** For B13, which K50 (50% binding concentration; column head reads KD) is on record?
**A.** The K50 (50% binding concentration; column head reads KD) was 9.26 µg/mL.

**Q.** Which K50 (50% binding concentration; column head reads KD) does the source give for B14 here?
**A.** Its K50 (50% binding concentration; column head reads KD) is 1.84 µg/mL.

**Q.** How did the K50 (50% binding concentration; column head reads KD) turn out when B15 was run?
**A.** Its K50 (50% binding concentration; column head reads KD) is > 100 µg/mL.

The binders below were run against gp120Yu-2 109-428 (HIV-1) (assay: competition ELISA on coated gp120Yu-2 109-428; periplasmic VHH first, then competitor sCD4 detected).

**Q.** Which signal as percent of the signal of the control does the source give for B16 here?
**A.** The signal as percent of the signal of the control was < 30%.

These binders were tested against gp140UG37 (subtype A), gp140 envelope glycoprotein from the HIV-1 group M A-clade isolate 92UG037 (HIV-1) (assay: binding of VHH to gp140 92UG (method not given)).

**Q.** B1 was tested. Which K50 (50% binding concentration) did it give?
**A.** Its K50 (50% binding concentration) is > 10 µg/mL.

**Q.** For B2, which K50 (50% binding concentration) is on record?
**A.** The K50 (50% binding concentration) was > 10 µg/mL.

**Q.** Which K50 (50% binding concentration) does the source give for B17 here?
**A.** Its K50 (50% binding concentration) is > 10 µg/mL.

Each binder was assayed against gp120Yu-2 109-428 (HIV-1) (assay: competition ELISA on coated gp120Yu-2 109-428; periplasmic VHH first, then competitor 17b detected).

**Q.** With B18 as the binder, how does the signal as percent of the signal of the control read?
**A.** The signal as percent of the signal of the control was < 30%.

The binders below were run against gp120Yu-2 109-428 (HIV-1) (assay: competition ELISA on coated gp120Yu-2 109-428; periplasmic VHH first, then competitor b12 detected).

**Q.** How did the signal as percent of the signal of the control turn out when B19 was run?
**A.** Its signal as percent of the signal of the control is < 30%.
